Tests used:
[1] = molecular target: human ACE2-hFc fusion protein (human) (UniProt Q9BYF1); assay: SPR
[2] = molecular target: Encapsulin–SpyTag (Myxococcus xanthus | Streptococcus pyogenes) (UniProt Q1D6H4); assay: SEC-MALS

Substance	kon [1] [M⁻¹ s⁻¹]	per cent reduction of binding after four weeks at 37 °C [1] [per cent]	per cent reduction of binding after two weeks at 37 °C [1] [per cent]	stoichiometry N [2]
Encapsulin–mRBD nanoparticle (from UniProt Q1D6H4;P0DTC2) (complex)	2.58e+06	36	1	–
Encapsulin–SpyTag (from UniProt Q1D6H4 1-287)	–	–	–	180

Reference: publication PMC9961482
